Measured values from the supplement of paper PMC9732359.
± gives the uncertainty stated by the source.

Assay: protein stability index of a GFP-peptide fusion (yeast GPS) (PSI 1-4); higher = more stable; sorted into four equal gates, so the index is relative within each strain
Method in brief: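 The protein stability index combines read frequencies across sorting gates, each weighted by its gate number and then summed. To obtain those frequencies, a pooled yeast library of GFP fusions to tiled 17-residue yeast protein peptides, on a plasmid also expressing Cherry, was grown to mid-log phase in leucine-free medium. The cells were sorted into four equal gates by GFP/Cherry ratio before plasmid amplification by PCR and Illumina sequencing.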

| Sequence | protein stability index (doa10∆) | protein stability index (pdr5∆) | protein stability index (san1∆) | protein stability index (ubr1∆) |
| --- | --- | --- | --- | --- |
| AEDQILANFVAKGFYHT [SRB8] | 2.91 ± 0.092 | 3.25 ± 0.055 | 3.25 ± 0.12 | 3.05 ± 0.065 |
| ANKEKKKAEKAARKAEK [RPL24A] | 3.27 ± 0.059 | 3.33 ± 0.065 | 3.38 ± 0.036 | 3.48 ± 0.055 |
| GYFGKVGMRYFHKQQAH [RPL28] | 2.6 ± 0.14 | 2.76 ± 0.095 | 2.89 ± 0.12 | 2.84 ± 0.05 |
| IGTHHAGLTRSDRSLSE [BRR2] | 2.2 ± 0.11 | 2.05 ± 0.2 | 1.47 ± 0.14 | 2.62 ± 0.07 |
| FFSSDWRFLQILRNGID [POP1] | 2.29 ± 0.073 | 2.27 ± 0.088 | 2.5 ± 0.1 | 2.18 ± 0.072 |
| SQEMVPRYFSEAINGFK [SIR3] | 2.99 ± 0.079 | 3.01 ± 0.088 | 3.14 ± 0.058 | 2.94 ± 0.054 |
| SATLPNYEDVGRFLRVP [BRR2] | 2.8 ± 0.087 | 3.1 ± 0.062 | 3.04 ± 0.048 | 3.01 ± 0.075 |
| QDVLKGSSASSRKAHGL [POP1] | 3.27 ± 0.062 | 3.06 ± 0.064 | 3.1 ± 0.059 | 3.14 ± 0.067 |
| FKVARELKTEAAVLSNL [ITC1] | 2.83 ± 0.19 | 2.66 ± 0.11 | 2.9 ± 0.089 | 2.86 ± 0.061 |
| YALAAKDRFDIDEKSQF [RPN2] | 1.73 ± 0.09 | 2.1 ± 0.13 | 1.93 ± 0.17 | 2.66 ± 0.082 |
| DATTWRYSMSEQFPFYL [IRR1] | 3.09 ± 0.098 | 2.94 ± 0.066 | 3.06 ± 0.063 | 3.07 ± 0.049 |
| QRVFDETEQEYSPSNEI [YDL116W/NUP84] | 3.28 ± 0.067 | 3.46 ± 0.069 | 3.21 ± 0.058 | 3.29 ± 0.043 |
| IDDLIHEIITVGPHFKQ [RPL7A] | 1.87 ± 0.1 | 2.32 ± 0.11 | – | 1.56 ± 0.064 |
| SSSAQQTKSNGTAGGNT [YJL041W/NSP1] | 3.32 ± 0.12 | 3.46 ± 0.16 | 3.36 ± 0.078 | 3.28 ± 0.085 |
| RNSLETKLTTCKRELAF [YIL149C/MLP2] | 2.09 ± 0.068 | 1.99 ± 0.077 | 1.88 ± 0.09 | 2.19 ± 0.053 |
| ANVQRLKEYQSKIIVFP [RPL13A] | 2.93 ± 0.076 | 3.03 ± 0.093 | 3.05 ± 0.092 | 3 ± 0.067 |
| ETDHKTNENGETDDNIE [SRB4] | 3.01 ± 0.22 | 3.57 ± 0.15 | 3.08 ± 0.083 | 3.21 ± 0.089 |
| VSVIAPESQGQHEQQKQ [YMR153W/NUP53] | 2.92 ± 0.085 | 3.15 ± 0.097 | 2.91 ± 0.068 | 2.94 ± 0.068 |
| STGGKAPRKQLASKAAR [HHT1] | 2.35 ± 0.23 | 3.35 ± 0.21 | 3.03 ± 0.1 | 3.25 ± 0.21 |
| DSKDGTTLNIKVEKRVL [SMB1] | – | 3.66 ± 0.22 | – | 3.45 ± 0.27 |
| NECIEERVPKTQLDKLR [SMB1] | 3.1 ± 0.051 | 3.07 ± 0.062 | 3.136 ± 0.03 | 3.24 ± 0.046 |
| DDEGSFAQENSELAVAT [SRB6] | 3.08 ± 0.065 | 3.25 ± 0.075 | 3.08 ± 0.054 | 3.3 ± 0.054 |
| TSNKEGFNSIWKIPQND [SSN2] | 3.29 ± 0.26 | 3.72 ± 0.3 | 3.45 ± 0.15 | – |
| SRSSSKNVNIEDITEPK [ESC2] | 2.92 ± 0.086 | 3 ± 0.082 | 2.67 ± 0.086 | 2.98 ± 0.15 |
| EDEENSDVLLFQLPTTC [RGR1] | 2.63 ± 0.044 | 2.27 ± 0.035 | 2.63 ± 0.041 | 2.35 ± 0.024 |
| VAGSKCWAVRADVHFLD [RRP45] | 2.07 ± 0.17 | 2.23 ± 0.14 | – | 2.26 ± 0.22 |

| Sequence | protein stability index (doa10∆) | protein stability index (pdr5∆) | protein stability index (san1∆) | protein stability index (ubr1∆) |
| --- | --- | --- | --- | --- |
| YVKSLHKQISAEDLTIA [SIN4] | 2.82 ± 0.14 | 3.19 ± 0.11 | 2.8 ± 0.2 | 2.77 ± 0.085 |
| PFDMGGYFIINGSEKVL [RPB2] | 2.83 ± 0.14 | 2.28 ± 0.14 | 2.56 ± 0.27 | 2.33 ± 0.16 |
| GKLLLDEHNELMRQALA [RPO21] | 2.41 ± 0.052 | 2.54 ± 0.086 | 2.02 ± 0.074 | 2.84 ± 0.051 |
| ALKTSIQHVGMINGRKL [FAS1] | 3.21 ± 0.12 | 3.21 ± 0.1 | 3.25 ± 0.067 | 3.19 ± 0.083 |
| ELRSLSKKDFKIIDNPK [YMR129W/POM152] | 2.46 ± 0.058 | 2.6 ± 0.06 | 2.24 ± 0.081 | 2.93 ± 0.07 |
| AHFWKPVLNLDKLWTLI [RPL28] | 2.22 ± 0.045 | 2.3 ± 0.047 | 2.09 ± 0.071 | 1.65 ± 0.032 |
| FGSRVMIAKEVKTSPDA [FAS1] | 3.37 ± 0.12 | 2.76 ± 0.26 | 2.81 ± 0.27 | 3.49 ± 0.2 |
| AFKATNQTNINSLAVRG [SCL1] | 3.1 ± 0.11 | 3.21 ± 0.085 | – | 2.84 ± 0.11 |
| LVQEQVREFQRRLAFLG [BRR2] | 2.07 ± 0.12 | 1.16 ± 0.14 | 1.04 ± 0.22 | 1.17 ± 0.087 |
| KGRFAVHRITDEEASYK [RPS4A] | 3.13 ± 0.075 | 3.2 ± 0.091 | 3.35 ± 0.061 | 3.33 ± 0.07 |
| TPKYRLVVRFTNKDIIC [RPL5] | 1.75 ± 0.078 | 1.64 ± 0.11 | 1.17 ± 0.2 | 1.36 ± 0.071 |
| AATNETFENINSLFYLK [IRR1] | 2.43 ± 0.25 | 2.37 ± 0.21 | 2.71 ± 0.17 | – |
| LFLEPSWSSSAAVIMRC [PCI8] | 1.19 ± 0.087 | 2.07 ± 0.093 | 1.58 ± 0.16 | 2.39 ± 0.095 |
| NTGPSTGGLFGAKPAGS [YGL172W/NUP49] | 3.43 ± 0.12 | 3.32 ± 0.11 | 2.67 ± 0.17 | – |
| QPSSSRYNGGNDNIGAN [SMB1] | 3.2 ± 0.091 | 3.49 ± 0.08 | 3.23 ± 0.049 | 3.37 ± 0.075 |
| MKLNILDERFASRVALN [IRR1] | 1.54 ± 0.051 | 2.31 ± 0.062 | 2.17 ± 0.11 | 2.03 ± 0.054 |
| YKKLDIDGKVIQAGKFD [SNF2] | 2.94 ± 0.088 | 3.36 ± 0.08 | 3.06 ± 0.044 | 2.99 ± 0.059 |
| KTAFKPHELTESVLPAA [QCR2] | 2.36 ± 0.049 | 2.69 ± 0.051 | 2.62 ± 0.057 | 2.8 ± 0.038 |
| CIVDFTNPKLKSEFDDL [YMR129W/POM152] | 1.81 ± 0.067 | 2.1 ± 0.074 | 1.82 ± 0.13 | 1.69 ± 0.052 |
| LLFPKSTIVNLAREVPQ [DPB4] | 1.77 ± 0.14 | 2.24 ± 0.25 | 1.72 ± 0.18 | 1.94 ± 0.14 |
| SFNVKENQPFHGIKDIP [AAR2] | 2.73 ± 0.16 | 3.17 ± 0.19 | 2.98 ± 0.11 | 2.34 ± 0.21 |
| HLNHYILLRYHHNDISN [YCG1] | 1.23 ± 0.088 | 1.17 ± 0.068 | 1.19 ± 0.15 | 1.33 ± 0.063 |
| LDSDSENDLSFALMRYY [RRI2] | 2.8 ± 0.068 | 2.89 ± 0.063 | 2.85 ± 0.057 | 2.91 ± 0.047 |
| VETILSGKARICIVGGY [FAS2] | 1.33 ± 0.24 | 1.32 ± 0.17 | 1.23 ± 0.16 | 1.14 ± 0.13 |
| RKSVFAPLNFNPIIENN [SSN2] | 2.65 ± 0.058 | 2.98 ± 0.073 | 2.75 ± 0.06 | 2.71 ± 0.069 |
